From paper PMC7870927, “Mechanism of the small ATP-independent chaperone Spy is substrate specific” (Nature Communications, 2021)
Numbering of substitutions follows the chain as printed. Where “and” joins values, the source holds several entries; their conditions need not be identical. Equal values may be shown once.

How the values were obtained:
Fyn SH3 (native) SH3 = Fyn SH3 (native) SH3 (UniProt P06241); conditions: cited from earlier work
[1] = molecular target: Im7 (native) (Escherichia coli) (UniProt Q03708); conditions: cited from earlier work
[2] = molecular target: Im7 (intermediate and unfolded states) (Escherichia coli) (UniProt Q03708); conditions: cited from earlier work
Fyn SH3 (unfolded) SH3 = Fyn SH3 (unfolded) SH3 (UniProt P06241); conditions: cited from earlier work
[3] = molecular target: T1, apoflavodoxin from Anabaena PCC 7119, wild type (Anabaena PCC 7119, UniProt P0A3E0 3-170); experiment: ITC; 10 °C
T1 chain: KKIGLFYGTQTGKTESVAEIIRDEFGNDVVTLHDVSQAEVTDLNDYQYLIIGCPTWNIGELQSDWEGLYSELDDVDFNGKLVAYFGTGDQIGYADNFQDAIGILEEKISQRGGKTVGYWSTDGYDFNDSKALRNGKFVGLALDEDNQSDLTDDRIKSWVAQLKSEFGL

[4] = molecular target: T2, apoflavodoxin from Anabaena PCC 7119, wild type (Anabaena PCC 7119, UniProt P0A3E0 3-170); experiment: other fluorescence titration; stopped-flow refolding: AnFld denatured in 5 M urea diluted 11.5-fold (0.09 µM final) into HN buffer (40 mM HEPES-KOH pH 7.5, 100 mM NaCl) with Spy dimer, 25 °C; normalised initial tryptophan fluorescence against Spy dimer concentration, one-site binding model; non-native state U* of AnFld; conditions: both partners purified
T2 construct: flavodoxin (apo form, without FMN) from Anabaena PCC 7119; gene codon-optimised, synthesised by GenScript; The same protein was used native and urea-denatured (5 M urea, then diluted: state U*); the assays tell the two apart; [U-2H,15N,13C]-labelled for the NMR titration; also called AnFld; AnFld WT; source: E. coli BL21 (DE3), purified (Ni-His Trap, ULP1 cleavage, HiTrap Q, Superdex 75; …)
T2 sequence: T1 chain

[5] = molecular target: T3, apoflavodoxin from Anabaena PCC 7119, L105A I109A double mutant (Anabaena PCC 7119, UniProt P0A3E0 3-170, L105A | I109A); experiment: ITC + other: kinetic unfolding experiments; ITC: 1.2 mM Spy dimer in the syringe, 100 µM AnFld 2A in the cell; 40 mM HEPES-KOH pH 7.5, 100 mM NaCl; one-site or two-site models; two binding-competent conformations of AnFld 2A; conditions: both partners purified
T3 construct: flavodoxin (apo form) from Anabaena PCC 7119 with the two destabilising mutations L105A and I109A; also called AnFld 2A; AnFld2A; source: E. coli BL21 (DE3), purified (same protocol as AnFld WT); not shown: His6, N-terminal, cleaved; SUMO, N-terminal, cleaved
T3 sequence: T1 chain with L104A, I108A

[6] = molecular target: T4, apoflavodoxin from Anabaena PCC 7119, F98N mutant (Anabaena PCC 7119, UniProt P0A3E0 3-170, F98N); experiment: ITC; 550 µM Spy dimer in the syringe, 50 µM AnFld F98N in the cell; 40 mM HEPES-KOH pH 7.5, 100 mM NaCl; 10 °C; one-site binding model; conditions: both partners purified
T4 construct: also called AnFld F98N; I^T mimic; source: E. coli BL21 (DE3), purified (same protocol as AnFld WT); not shown: His6, N-terminal, cleaved; SUMO, N-terminal, cleaved
T4 sequence: T1 chain with F97N

[7] = molecular target: T5, apoflavodoxin from Anabaena PCC 7119, L105A I109A double mutant (Anabaena PCC 7119, UniProt P0A3E0 3-170, L105A | I109A); experiment: ITC; first site (K1)
T5 sequence: T1 chain with L104A, I108A

[8] = molecular target: T1, apoflavodoxin from Anabaena PCC 7119, …; experiment: initial fluorescence from kinetic fits
[9] = molecular target: T2, apoflavodoxin from Anabaena PCC 7119, …; experiment: other fluorescence titration; equilibrium titration of Spy dimer into 17.2 µM native AnFld WT (square hyperbola, one-site) or 10 µM AnFld 2A (quadratic tight-binding model) in HN buffer, 25 °C; intrinsic tryptophan fluorescence at 340 nm; apparent; conditions: both partners purified
[10] = molecular target: T3, apoflavodoxin from Anabaena PCC 7119, …; experiment: as above; conditions: both partners purified
[11] = molecular target: T2, apoflavodoxin from Anabaena PCC 7119, …; experiment: ITC; 550 µM Spy dimer in the syringe, 50 µM AnFld WT in the cell; 40 mM HEPES-KOH pH 7.5, 100 mM NaCl; MicroCal iTC200; temperature not shown; conditions: both partners purified
[12] = molecular target: T6, apoflavodoxin from Anabaena PCC 7119, F98N mutant (Anabaena PCC 7119, UniProt P0A3E0 3-170, F98N); experiment: ITC; 10 °C
T6 sequence: T1 chain with F97N

[13] = molecular target: T2, apoflavodoxin from Anabaena PCC 7119, …; experiment: AUC; sedimentation velocity of Spy with AnFld or AzoFld, 48,000 r.p.m., absorbance at 280 nm; 2DSA, genetic algorithm, Monte Carlo; conditions: both partners purified
[14] = molecular target: T7, apoflavodoxin from Azotobacter vinelandii, C69A (Azotobacter vinelandii, UniProt P00324 1-180, C69A); experiment: as above; conditions: both partners purified
T7 construct: flavodoxin (apo form) from Azotobacter vinelandii with C69A; The only AzoFld gene that the methods name is C69A; also called AzoFld; AzoFld C69A; source: E. coli BL21 (DE3), purified (same protocol as AnFld WT); not shown: His6, N-terminal, cleaved; SUMO, N-terminal, cleaved

[15] = molecular target: T5, apoflavodoxin from Anabaena PCC 7119, …; experiment: ITC; second site (K2)

Chain of Im7 (intermediate and unfolded states) (Escherichia coli) (Q03708 whole entry): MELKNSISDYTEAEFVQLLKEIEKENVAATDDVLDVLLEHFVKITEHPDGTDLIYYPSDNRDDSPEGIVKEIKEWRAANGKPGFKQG
Chain of Im7 (native) (Escherichia coli) (Q03708 whole entry): as above
T7 sequence (P00324 whole entry C70A): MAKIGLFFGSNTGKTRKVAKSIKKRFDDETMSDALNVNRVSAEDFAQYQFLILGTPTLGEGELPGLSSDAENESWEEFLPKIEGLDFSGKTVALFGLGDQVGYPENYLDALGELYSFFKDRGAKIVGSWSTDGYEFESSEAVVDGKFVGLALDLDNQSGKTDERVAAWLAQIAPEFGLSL
Chain of Fyn SH3 (unfolded) SH3 (P06241 82-143): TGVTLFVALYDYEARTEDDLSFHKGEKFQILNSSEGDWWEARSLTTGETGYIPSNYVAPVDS
Chain of Fyn SH3 (native) SH3 (P06241 82-143): as above

Molecule: Spy (from UniProt P77754)
- Kd (Fyn SH3 (native) SH3): 50 µM
- Kd [1]: 20.5 µM
- Kd [2]: 4.7 µM
- Kd (Fyn SH3 (unfolded) SH3): 2900 nM

B1: Spy (small bacterial ATP-independent chaperone) (natural protein, UniProt P77754 24-161, looked up)
chain: ADTTTAAPADAKPMMHHKGKFGPHQDMMFKDLNLTDAQKQQIREIMKGQRDQMKRPPLEERRAMHDIIASDTFDKVKAEAQIAKMEEQRKANMLAHMETQNKIYNILTPEQKKQFNANFEKRLTERPAAKGKMPATAE
notes: chaperone Spy; Used and counted as a dimer throughout ('Spy dimer'); also called Spy dimer; SpyD; source: E. coli BL21 (DE3), purified (Ni-His Trap, ULP1 cleavage, HiTrap Q, HiLoad Superdex 75); not shown: His6, N-terminal, cleaved; SUMO, N-terminal, cleaved
- Ka [3]: 35500 M⁻¹
- Kd [4]: 350 nM
- KD of one of two binding-competent conformations of AnFld 2A [5]: 0.23 µM and 0.38 µM
- Kd [6]: 1800 nM
- Ka [7]: 2.65e+06 M⁻¹
- Kd [8]: 17.7 µM
- Kd [9]: 40 µM
- Kd [10]: 100 nM
- Kd [11]: 28.2 µM
- Ka [12]: 801000 M⁻¹
- stoichiometry N [13]: 1 AnFld per Spy dimer
- stoichiometry N [14]: 1 AzoFld per Spy dimer
- Ka [15]: 4.37e+06 M⁻¹
